B1: Sis0811_(Δ268) (truncated Sis0811 lacking the C-terminal 54 residues) (domain or fragment, Sulfolobus islandicus REY15A, UniProt F0NH89 1-268, looked up)
chain: MNKVHVSAVGTSLLKNSLSADNVKKEVEDLGLKDWDRLKFDDDRQNKIRDNFTTLKDLLLNFLKSKGKEASAELDSLLSAIEKLQHKKEELYVFLYTTNTWNSKLAGEVIKNYLEEEGIKSELATVKSISSEETFHEGIEDLFDKVIYKILKFKEEGKEVYINATAGLKPETTFLTLAGLLAGADLVYYKYQEFNDVVFLPSPPITISPRYLEWLIEFANYGYTLSEKKAEELGIPVRLLEVRNLVERKGEDAYRLKDWVRKMLGIYL
B2: Sis0811 full length (standalone ring nuclease from Sulfolobus islandicus REY15A) (enzyme, UniProt F0NH89 1-322, looked up)
chain: MNKVHVSAVGTSLLKNSLSADNVKKEVEDLGLKDWDRLKFDDDRQNKIRDNFTTLKDLLLNFLKSKGKEASAELDSLLSAIEKLQHKKEELYVFLYTTNTWNSKLAGEVIKNYLEEEGIKSELATVKSISSEETFHEGIEDLFDKVIYKILKFKEEGKEVYINATAGLKPETTFLTLAGLLAGADLVYYKYQEFNDVVFLPSPPITISPRYLEWLIEFANYGYTLSEKKAEELGIPVRLLEVRNLVERKGEDAYRLKDWVRKMLGIYLPAGVTSMYYKVIVEGEEEKVFDNETEAYNYMEKKRKEGKRVRVEVPNKVYFLGL
B3: Sis0811_(Δ268)(S12A) (domain or fragment, Sulfolobus islandicus REY15A, UniProt F0NH89 1-268, looked up)
chain: MNKVHVSAVGTALLKNSLSADNVKKEVEDLGLKDWDRLKFDDDRQNKIRDNFTTLKDLLLNFLKSKGKEASAELDSLLSAIEKLQHKKEELYVFLYTTNTWNSKLAGEVIKNYLEEEGIKSELATVKSISSEETFHEGIEDLFDKVIYKILKFKEEGKEVYINATAGLKPETTFLTLAGLLAGADLVYYKYQEFNDVVFLPSPPITISPRYLEWLIEFANYGYTLSEKKAEELGIPVRLLEVRNLVERKGEDAYRLKDWVRKMLGIYL
B4: Sis0811_(Δ268)(S12G/K169G) (domain or fragment, Sulfolobus islandicus REY15A, UniProt F0NH89 1-268, looked up)
chain: MNKVHVSAVGTGLLKNSLSADNVKKEVEDLGLKDWDRLKFDDDRQNKIRDNFTTLKDLLLNFLKSKGKEASAELDSLLSAIEKLQHKKEELYVFLYTTNTWNSKLAGEVIKNYLEEEGIKSELATVKSISSEETFHEGIEDLFDKVIYKILKFKEEGKEVYINATAGLGPETTFLTLAGLLAGADLVYYKYQEFNDVVFLPSPPITISPRYLEWLIEFANYGYTLSEKKAEELGIPVRLLEVRNLVERKGEDAYRLKDWVRKMLGIYL

Tests used:
Sis0811Δ268 = target: T1, Sis0811Δ268 (Saccharolobus islandicus, UniProt F0NH89); experiment: isothermal titration calorimetry, single-site model; type: binding
T1 sequence (F0NH89 1-268): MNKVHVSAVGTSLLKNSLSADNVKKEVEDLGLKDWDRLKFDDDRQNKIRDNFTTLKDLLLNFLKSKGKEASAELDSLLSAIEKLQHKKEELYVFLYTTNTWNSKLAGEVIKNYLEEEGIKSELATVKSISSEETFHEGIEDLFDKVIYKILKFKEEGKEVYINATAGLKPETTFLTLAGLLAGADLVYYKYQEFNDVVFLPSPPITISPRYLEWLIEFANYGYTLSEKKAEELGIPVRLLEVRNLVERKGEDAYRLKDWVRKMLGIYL

[1] = target: T2, Sis0811 (SisRN0811), full length (Saccharolobus islandicus, UniProt F0NH89); experiment: as above; type: binding
T2 sequence (F0NH89 1-322): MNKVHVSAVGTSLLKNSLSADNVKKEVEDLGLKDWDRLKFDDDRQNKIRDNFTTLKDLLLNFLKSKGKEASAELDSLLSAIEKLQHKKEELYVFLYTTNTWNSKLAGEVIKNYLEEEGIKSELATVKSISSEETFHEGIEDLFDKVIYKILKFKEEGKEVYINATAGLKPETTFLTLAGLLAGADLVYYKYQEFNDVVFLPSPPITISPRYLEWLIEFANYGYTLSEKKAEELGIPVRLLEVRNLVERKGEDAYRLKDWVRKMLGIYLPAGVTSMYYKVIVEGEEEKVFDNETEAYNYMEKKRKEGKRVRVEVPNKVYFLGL

SEC-MALS = target: the molecule itself; experiment: SEC-MALS
crystal structure = target: the molecule itself; experiment: crystal structure

Row | Molecule | stoichiometry N (SEC-MALS) | binding result (crystal structure) | other results
1 | Nc1ncnc2c1ncn2[C@@H]1O[C@@H]2COP(=O)(O)O[C@H]3[C@@H](O)[C@H](n4cnc5c(N)ncnc54)O[C@@H]3COP(=O)(O)O[C@H]3[C@@H](O)[C@H](n4cnc5c(N)ncnc54)O[C@@H]3COP(=O)(O)O[C@H]3[C@@H](O)[C@H](n4cnc5c(N)ncnc54)O[C@@H]3COP(=O)(O)O[C@H]2[C@H]1O [cA4] |  |  | Kd (Sis0811Δ268): 5.9 nM; Kd [1]: 9.1 nM
2 | B1 | 2 |  | 
3 | B2 | 2 |  | 
4 | B3 |  | binds | 
5 | B4 |  | binds | 

— PMC8643638 (Nucleic Acids Research, 2021)
